Values of other authors, collected in article PMC6188814.

Target: ALDH7A1 (Homo sapiens) (UniProt P49419)
Assay: analytical ultracentrifugation

**Q.** For ALDH7A1 (from UniProt P49419), which Kd is on record?
**A.** The Kd was 16 µM.
